Test results reported in PMC9192595, “Dynamic interaction of BRCA2 with telomeric G-quadruplexes underlies telomere replication homeostasis”.

Assays:
[1] = molecular target: T1, POT1OB (human, UniProt Q9NUX5 10-278); experiment: EMSA; 100 mM KCl; EMSA: 10 nM probe, 50 mM Tris-HCl pH 7.5, 100 mM KCl, 2 mM b-ME, 10% glycerol, probe pre-incubated 37 C, gel 4 C (RAD51: +1 mM MgCl2, 2 mM ATP); smFRET: 50 mM Tris-HCl pH 7.9, 100 mM KCl, 20 mM NaCl, 1 mM DTT, 0.1 mg/ml BSA, 9% glycerol, 37 C; details: protein: recombinant; tags: N-MBP, C-6xHis; label: 5' 32P; intramolecular G4
T1 sequence: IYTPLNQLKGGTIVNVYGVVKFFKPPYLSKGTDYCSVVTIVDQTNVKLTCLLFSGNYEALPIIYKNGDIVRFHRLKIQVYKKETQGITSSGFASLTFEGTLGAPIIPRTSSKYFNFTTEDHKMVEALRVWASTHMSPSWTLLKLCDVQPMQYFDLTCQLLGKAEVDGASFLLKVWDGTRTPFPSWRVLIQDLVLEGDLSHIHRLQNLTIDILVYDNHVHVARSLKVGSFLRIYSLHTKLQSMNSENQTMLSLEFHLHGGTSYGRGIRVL

[2] = molecular target: T2, BRCA2OB (human, UniProt P51587 2665-3197); experiment: EMSA; 100 mM KCl; rough estimate, max protein 1 uM; EMSA: 10 nM probe, 50 mM Tris-HCl pH 7.5, 100 mM KCl, 2 mM b-ME, 10% glycerol, probe pre-incubated 37 C, gel 4 C (RAD51: +1 mM MgCl2, 2 mM ATP); smFRET: 50 mM Tris-HCl pH 7.9, 100 mM KCl, 20 mM NaCl, 1 mM DTT, 0.1 mg/ml BSA, 9% glycerol, 37 C; details: protein: recombinant; tags: N-MBP, C-6xHis; label: 5' 32P; intramolecular G4
T2 sequence: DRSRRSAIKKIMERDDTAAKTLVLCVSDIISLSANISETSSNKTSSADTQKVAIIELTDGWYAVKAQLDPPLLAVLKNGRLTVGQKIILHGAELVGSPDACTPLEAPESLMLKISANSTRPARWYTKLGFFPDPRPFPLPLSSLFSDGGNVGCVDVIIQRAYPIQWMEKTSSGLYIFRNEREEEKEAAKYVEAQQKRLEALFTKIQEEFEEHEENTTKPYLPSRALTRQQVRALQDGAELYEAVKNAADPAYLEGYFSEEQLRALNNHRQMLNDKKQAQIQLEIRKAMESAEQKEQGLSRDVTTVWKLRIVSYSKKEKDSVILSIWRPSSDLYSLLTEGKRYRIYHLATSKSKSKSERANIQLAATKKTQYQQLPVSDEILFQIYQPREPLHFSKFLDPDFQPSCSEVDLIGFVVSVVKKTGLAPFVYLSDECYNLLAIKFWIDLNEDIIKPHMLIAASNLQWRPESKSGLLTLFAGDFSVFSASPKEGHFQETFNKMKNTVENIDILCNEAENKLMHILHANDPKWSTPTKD

[3] = molecular target: T2, BRCA2OB; experiment: EMSA; 100 mM KCl; EMSA: 10 nM probe, 50 mM Tris-HCl pH 7.5, 100 mM KCl, 2 mM b-ME, 10% glycerol, probe pre-incubated 37 C, gel 4 C (RAD51: +1 mM MgCl2, 2 mM ATP); smFRET: 50 mM Tris-HCl pH 7.9, 100 mM KCl, 20 mM NaCl, 1 mM DTT, 0.1 mg/ml BSA, 9% glycerol, 37 C; details: protein: recombinant; tags: N-MBP, C-6xHis; label: 5' 32P; intramolecular G4
[4] = molecular target: T2, BRCA2OB; experiment: smFRET; 0.1 and 1 uM BRCA2OB; EMSA: 10 nM probe, 50 mM Tris-HCl pH 7.5, 100 mM KCl, 2 mM b-ME, 10% glycerol, probe pre-incubated 37 C, gel 4 C (RAD51: +1 mM MgCl2, 2 mM ATP); smFRET: 50 mM Tris-HCl pH 7.9, 100 mM KCl, 20 mM NaCl, 1 mM DTT, 0.1 mg/ml BSA, 9% glycerol, 37 C; details: protein: recombinant, tags: N-MBP, C-6xHis, label: 3' Cy3, stem 5' Cy5, 3' biotin
[5] = molecular target: T2, BRCA2OB; experiment: smFRET; 1 uM BRCA2OB; EMSA: 10 nM probe, 50 mM Tris-HCl pH 7.5, 100 mM KCl, 2 mM b-ME, 10% glycerol, probe pre-incubated 37 C, gel 4 C (RAD51: +1 mM MgCl2, 2 mM ATP); smFRET: 50 mM Tris-HCl pH 7.9, 100 mM KCl, 20 mM NaCl, 1 mM DTT, 0.1 mg/ml BSA, 9% glycerol, 37 C; details: protein: recombinant; tags: N-MBP, C-6xHis; label: 3' Cy3; stem 5' Cy5, 3' biotin
[6] = molecular target: T2, BRCA2OB; experiment: EMSA; EMSA: 10 nM probe, 50 mM Tris-HCl pH 7.5, 100 mM KCl, 2 mM b-ME, 10% glycerol, probe pre-incubated 37 C, gel 4 C (RAD51: +1 mM MgCl2, 2 mM ATP); smFRET: 50 mM Tris-HCl pH 7.9, 100 mM KCl, 20 mM NaCl, 1 mM DTT, 0.1 mg/ml BSA, 9% glycerol, 37 C; details: protein: recombinant; tags: N-MBP, C-6xHis; label: 5' 32P
[7] = molecular target: T2, BRCA2OB; experiment: EMSA; 100 mM KCl; EMSA: 10 nM probe, 50 mM Tris-HCl pH 7.5, 100 mM KCl, 2 mM b-ME, 10% glycerol, probe pre-incubated 37 C, gel 4 C (RAD51: +1 mM MgCl2, 2 mM ATP); smFRET: 50 mM Tris-HCl pH 7.9, 100 mM KCl, 20 mM NaCl, 1 mM DTT, 0.1 mg/ml BSA, 9% glycerol, 37 C; details: protein: recombinant, tags: N-MBP, C-6xHis, label: 5' 32P
[8] = molecular target: T3, GST-B2-7 (human, UniProt P51587 2438-2824); experiment: EMSA; 150 mM KCl; EMSA: 10 nM probe, 50 mM Tris-HCl pH 7.5, 100 mM KCl, 2 mM b-ME, 10% glycerol, probe pre-incubated 37 C, gel 4 C (RAD51: +1 mM MgCl2, 2 mM ATP); smFRET: 50 mM Tris-HCl pH 7.9, 100 mM KCl, 20 mM NaCl, 1 mM DTT, 0.1 mg/ml BSA, 9% glycerol, 37 C; details: protein: recombinant; tags: GST; label: 32P
T3 sequence: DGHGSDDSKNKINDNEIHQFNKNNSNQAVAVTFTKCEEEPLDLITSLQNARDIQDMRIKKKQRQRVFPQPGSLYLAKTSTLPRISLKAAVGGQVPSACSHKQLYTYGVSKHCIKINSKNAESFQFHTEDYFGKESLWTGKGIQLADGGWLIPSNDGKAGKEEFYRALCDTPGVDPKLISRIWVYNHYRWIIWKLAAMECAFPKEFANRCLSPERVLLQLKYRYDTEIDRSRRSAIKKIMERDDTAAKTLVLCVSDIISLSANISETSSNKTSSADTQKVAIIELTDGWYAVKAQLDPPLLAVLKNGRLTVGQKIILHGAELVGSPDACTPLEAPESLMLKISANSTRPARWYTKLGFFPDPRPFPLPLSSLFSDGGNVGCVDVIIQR

[9] = molecular target: T4, GST-B2-9 (human, UniProt P51587 3189-3418); experiment: as above; details: protein: recombinant; tags: GST; label: 32P
T4 sequence: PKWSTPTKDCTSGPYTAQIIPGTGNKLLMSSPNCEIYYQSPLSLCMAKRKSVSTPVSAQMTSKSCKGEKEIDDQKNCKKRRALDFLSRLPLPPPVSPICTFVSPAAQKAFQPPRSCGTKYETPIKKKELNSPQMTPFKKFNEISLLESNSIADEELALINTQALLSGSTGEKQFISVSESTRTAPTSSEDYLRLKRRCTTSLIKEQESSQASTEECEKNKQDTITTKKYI

[10] = molecular target: T5, GST-B2-8 (human, UniProt P51587 2780-3197); experiment: as above; details: protein: recombinant; tags: GST; label: 32P
T5 sequence: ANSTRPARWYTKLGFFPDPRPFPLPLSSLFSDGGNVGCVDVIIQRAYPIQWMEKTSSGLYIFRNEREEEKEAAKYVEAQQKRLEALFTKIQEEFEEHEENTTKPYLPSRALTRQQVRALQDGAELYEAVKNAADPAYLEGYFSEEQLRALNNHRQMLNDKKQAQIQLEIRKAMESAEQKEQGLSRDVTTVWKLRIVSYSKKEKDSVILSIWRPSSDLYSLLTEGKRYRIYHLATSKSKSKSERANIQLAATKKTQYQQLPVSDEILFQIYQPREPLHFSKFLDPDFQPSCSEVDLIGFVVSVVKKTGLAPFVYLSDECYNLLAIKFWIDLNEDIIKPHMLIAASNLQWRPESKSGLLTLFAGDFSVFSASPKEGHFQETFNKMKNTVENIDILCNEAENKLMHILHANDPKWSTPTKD

[11] = 29 bp stem with 3' G4 overhang 30 nt

GGTTGGGGTTGGGGTTGGGGTTGGGGTTGG (structured_DNA) [TelG5T2G4]
binding result [1]: no binding
Kd [2]: 1.4 µM
binding signal [3]: ~3 fold vs TelG5

B1: TelG5 smFRET (mixed)
DNA 1: GCGTGGCACCGGTAATAGGAGATAGGAGAGGTTAGGGTTAGGGTTAGGGTTAGGGTTAG
DNA 2: TCTCCTATCTCCTATTACCGGTGCCACGC
modifications: 3' amino; stem 5' amino
binding result [4, 11]: binds

B2: TelG5TTT smFRET (mixed)
DNA 1: GCGTGGCACCGGTAATAGGAGATAGGAGAGGTTTGGGTTTGGGTTTGGGTTTGGGTTTG
DNA 2: TCTCCTATCTCCTATTACCGGTGCCACGC
modifications: 3' amino; stem 5' amino
binding result [4, 11]: binds

B3: TelG5CTA smFRET (mixed)
DNA 1: GCGTGGCACCGGTAATAGGAGATAGGAGAGGCTAGGGCTAGGGCTAGGGCTAGGGCTAG
DNA 2: TCTCCTATCTCCTATTACCGGTGCCACGC
modifications: 3' amino; stem 5' amino
binding result [5]: no binding

GCTAGGGCTAGGGCTAGGGCTAGGGCTAG (structured_DNA) [TelG-CTA]
binding result [6]: no binding

GGTTAGGGTTAGGGTTAGGGTTAGGGTTAGGGTTAG (structured_DNA) [TelG6]
binding result ([7]; intramolecular G4): binds

GGTTAGGGTTAGGGTTAG (ssDNA) [TelG3]
binding result [7]: no binding

GCCCGCGGTTAGGGTTAGGGTTAGGGTTAGGGGTGAATTC (ssDNA) [telomeric G-rich strand (40 nt)]
binding result [8]: no binding
binding result [9]: no binding
binding result [10]: binds

B4: TelG5:TelC5 (dsDNA)
DNA 1: GGTTAGGGTTAGGGTTAGGGTTAGGGTTAG
DNA 2: CTAACCCTAACCCTAACCCTAACCCTAACC
binding result ([7]; blunt): no binding

B5: TelG5TT smFRET (mixed)
DNA 1: GCGTGGCACCGGTAATAGGAGATAGGAGAGGTTTGGGTTGGGTTGGGTTGGGTTTG
DNA 2: TCTCCTATCTCCTATTACCGGTGCCACGC
modifications: 3' amino; stem 5' amino
binding result ([4]; 29 bp stem with 3' G4 overhang 27 nt): binds

CTAACCCTAACCCTAACCCTAACCCTAACC (ssDNA) [TelC5]
binding result [7]: no binding

AGTTAGAGTTAGAGTTAGAGTTAGAGTTAG (ssDNA) [TelG5GAG]
binding result ([7]; unfolded): no binding

GAATTCACCCCTAACCCTAACCCTAACCCTAACCGCGGGC (ssDNA) [telomeric C-rich strand (40 nt)]
binding result [8]: no binding
binding result [9]: no binding
binding result [10]: no binding
